The supplement of paper PMC9170038

Tested on: MS2 coat protein
Test: apparent KD of MS2 coat protein; designed switch direction (-1 OFF switch, 1 ON switch): 1; higher = weaker reporter binding
How it was run: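 Designed RNA switches with common flanks were transcribed on Illumina chips by stalled E. coli RNA polymerase and titrated with SNAP-549-labelled MS2 coat protein, from 0.7 or 1.5 nM doubling to 3 µM, in Tris-HCl pH 7.5 buffer with KCl, MgCl2, BSA, DTT, tRNA and Tween-20. Steps lasted 0.8–1.5 h (lowest) to 10–20 min (highest). Titrations ran without input, with 200 uM small-molecule ligand, or with an oligonucleotide input. Normalised cluster fluorescence was curve-fitted, and apparent KD is the per-design median over clusters.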

[1] = input ligand: microRNA oligo, concentration not stated
[2] = Eterna round: R95, input ligand: FMN 200 uM
[3] = Eterna round: R95, input ligand: microRNA oligo, concentration not stated
[4] = Eterna round: R95, input ligand: none

Row | Sequence | apparent KD of MS2 coat protein (input ligand: FMN 200 uM) [nM] | apparent KD of MS2 coat protein [1] [nM] | apparent KD of MS2 coat protein (input ligand: none) [nM] | apparent KD of MS2 coat protein [2] [nM] | apparent KD of MS2 coat protein [3] [nM] | apparent KD of MS2 coat protein [4] [nM]
1 | GGAAUAUUUACAGGAUAUGAUUUGUAAAUUCGAUCAGAAGGGUAGAUGUCUUACACGAUUUGUUACAUGAGGAUCACCCAUGUU [SameState NG1 #10] (Eterna round: R96, puzzle: Same State NG 1) | 31 | 81.9 | 86.3 | – | – | –
2 | GGAGAACAUGAGGAUCACCCAUGUAGGCGUUAGCUAGGAUAUGCGGGAAGGAAGAGAGAAGCAGAAGGAGUAGGUA [JR_SS1_Sub031] (puzzle: Same State 1) | – | – | – | 39.6 | 64.4 | 80
3 | GGAGAGAAGUGAGGAUAUGCAUGGAAGACACAUGAGGAUCACCCAUGUGGGAGGGAGACCGGGAGGUAGAAGGCACUGGGAAGA [AK SSNG2-V2-25.1] (Eterna round: R96, puzzle: Same State NG 2) | 425 | 42.3 | 74.2 | – | – | –
4 | GGAGCCAAGGCAGGAUAUUCAAAACAUGAGGAUCACCCAUGUGGGUAAAAGGCCAGAAGGCCUUGGGAGAAGGGCCAUGGCUCG [Xeonanis - 13 mod12] (Eterna round: R96, puzzle: Same State NG 2) | 11.5 | 9.02 | 15.8 | – | – | –
5 | GGAGCCGGCACUGAGGAUAUUCAUAUUAAAACAUGAGGAUCACCCAUGUAGGCCAGAAGGCCUUGGGAGAAGGCAGGUCGACUCG [Diqureveri] (Eterna round: R96, puzzle: Same State 2) | 24.5 | 159 | 209 | – | – | –
6 | GGAGCCGGCACUGAGGAUAUUCAUAUUAAAACAUGAGGAUCACCCAUGUAGGCCAGAAGGCCUUGGGAGAAGGCGGGUCGACUCG [Diqureveri - 1] (puzzle: Same State 2) | – | – | – | 29.7 | 523 | 371
7 | GGAGCCGGCACUGAGGAUAUUCGUAUUAAAACAUGAGGAUCACCCAUGUAGGCCAGAAGGCCUUGGGAGAAGGCAGGUCGACUCG [Diqureveri - 2] (puzzle: Same State 2) | – | – | – | 17.2 | 38.9 | 59.7
8 | GGAGCCGGCCUAGGAUAUUUCAUAAAUUAACAUGAGGAUCACCCAUGUAGGCCAGAAGGCCUUGGGAAGAAGGAGGUCGGCUCC [Loop Effect - U27,U28] (Eterna round: R96, puzzle: Same State NG 2) | 16.8 | 37.7 | 51.4 | – | – | –
9 | GGAGCCGGCCUAGGAUAUUUCAUAACAAAACAUGAGGAUCACCCAUGUAGGCCAGAAGGCCUUGGGAAGAAGGAGGUCGGCUCC [Loop Effect - C26] (Eterna round: R96, puzzle: Same State NG 2) | – | 18.9 | – | – | – | –
10 | GGAGCCGGUACUGAGGAUAUUCAUAUUAAAACAUGAGGAUCACCCAUGUAGGCCAGAAGGCCUUGGGAGAAGGCAGGCCAGCUCG [Atgexeedri - 4] (Eterna round: R96, puzzle: Same State 2) | 24.7 | 177 | 268 | – | – | –
11 | GGAGCCGGUACUGAGGAUAUUCAUAUUAAAACAUGAGGAUCACCCAUGUAGGCCAGAAGGCCUUGGGAGAAGGCAGGCCAGCUCG [Atgexeedri - 4] (puzzle: Same State 2) | – | – | – | 20.2 | 270 | 458
12 | GGAGCCGGUACUGAGGAUAUUCAUAUUAAAACAUGAGGAUCACCCAUGUGGGCCAGAAGGCCUUGGGAGAAGGCAGACCAGCUCG [Atgexeedri - 3] (Eterna round: R96, puzzle: Same State 2) | 18.2 | 108 | 156 | – | – | –
13 | GGAGCCGGUACUGAGGAUAUUCAUAUUAAAACAUGAGGAUCACCCAUGUGGGCCAGAAGGCCUUGGGAGAAGGCAGACCAGCUCG [Atgexeedri - 3] (puzzle: Same State 2) | – | – | – | 15.4 | 115 | 177
14 | GGAUGAUUGACAGGAUAUCAUUUGUAAAUUCGUUGAGAAGGGUCGAUUACUUACACGACGUGUUACAUGAGGAUCACCCAUGUU [SameState NG1 #4] (Eterna round: R96, puzzle: Same State NG 1) | 117 | 101 | 185 | – | – | –
15 | GGCAAUAUCACAGGAUAUUGGAAAGGAAGUGUACAAGAAGGGUGAUAGGGCCUCAGCAACAUGAGGAUCACCCAUGUACUGAGC [PowerStrip SSNG 1.10] (Eterna round: R96, puzzle: Same State NG 1) | 62.6 | 13.5 | 40.8 | – | – | –
16 | GGCUGCGUUGUGAAGGAUAUCCGCGUCUGGACAUGAGGAUCACCCAUGUAUGCUUGGAUCAUGCCGGAGAAGGUCACGAAUGAUU [JR_SS002_Sub1214] (Eterna round: R96, puzzle: Same State 2) | 17 | 19.9 | 32.9 | – | – | –

Row | Sequence | apparent KD of MS2 coat protein (input ligand: FMN 200 uM) [nM] | apparent KD of MS2 coat protein [1] [nM] | apparent KD of MS2 coat protein (input ligand: none) [nM] | apparent KD of MS2 coat protein [2] [nM] | apparent KD of MS2 coat protein [3] [nM] | apparent KD of MS2 coat protein [4] [nM]
17 | GGGCCAGCCUGUGCUGGGCCUUAGCAUGCACAUGAGGAUCACCCAUGUCGUGUACAUGCUUUUUGCUCGUCUUUAAA [Photon Torp-09] (puzzle: Sensor for hsa-mir-208a) | – | – | – | 79.2 | 15.6 | 93.2
18 | GGGCCAGCCUGUGCUGGGCUUUAGCAUGUACAUGAGGAUCACCCAUGUCGUGUACAUGCUUUUUGCUCGUCUUUAAA [Photon Torp-07] (puzzle: Sensor for hsa-mir-208a) | – | – | – | 70.5 | 22.5 | 100
19 | GGGUGUGGAAGGAAAGACAGGGAAAGGAAACAUGAGGAUCACCCAUGUGAAGGAAGAAAGGGAGCUCGUCUUAUAAG [JR_SHM208A_Sub002] (puzzle: Sensor for hsa-mir-208a) | – | – | – | 26 | 27.6 | 35
20 | GGUACCAUCACAGGAUAUGCUAUCCUUUGGGUAGCAGAAGGGUGAUACAUGAGGAUCACCCAUGUGGUGCCAGGGCGUGAGCCC [JL SSNG1 1.91] (Eterna round: R96, puzzle: Same State NG 1) | 901 | 44.5 | 331 | – | – | –
21 | GGUAUCUCCCGUGAGGAUAUGCGGCGUAGAACAUGAGGAUCACCCAUGUCCUUCGAAUGGGUUACGCAGAAGGCACGACGGUACC [Robot Leg #2] (puzzle: Same State 2) | – | – | – | – | 24.5 | –
22 | GGUCCAGCCUGAGCUGGACAAAAGCAUGUACAUGAGGAUCACCCAUGUCAUGUACAAGCUUUUUGCUCGUCUAAAGG [Mat - hsa-mir-208a - 92] (puzzle: Sensor for hsa-mir-208a) | – | – | – | 726 | 23.8 | 586
23 | GGUCCAGCCUGAGCUGGACAAAAGCAUGUACAUGAGGAUCACCCAUGUCAUGUACAAGUUUUUUGCUCGUCUUAAAA [JL mod - D87 - 12] (puzzle: Sensor for hsa-mir-208a) | – | – | – | 35.3 | 10.6 | 38.7
24 | GGUCCAGCCUGAGCUGGACAAAAGCAUGUACAUGAGGAUCACCCAUGUUCAUGUACAAGCUUUUUGCUCGUCUUGCA [salish99_208a_r3_110x] (puzzle: Sensor for hsa-mir-208a) | – | – | – | 639 | 15.5 | 706
25 | GGUCCAGCCUGAGCUGGACGAAAGUAUGUACAUGAGGAUCACCCAUGUCAUGUAUAAGUUUUUUGUUUGUCUUGAAA [Sensorship 2 - Jieux - Sensor for hsa-mir-208a] (puzzle: Sensor for hsa-mir-208a) | – | – | – | 22.4 | 11.2 | 22.7
26 | GGUCUAGUUACAGGAUAUGCAUUGCUUUGCGAUGCAGAAGGGUGGUAACAUGAGGAUCACCCAUGUGGGCCAGCGCAAAAGCGC [JL SSNG1 cdp] (Eterna round: R96, puzzle: Same State NG 1) | 981 | 661 | 1440 | – | – | –
27 | GGUGACUUAAGAGGAUAUCCCGUAACAUUCGUCGAUACGAGACAUGAGGAUCACCCAUGUGAAAUGGAGAAGGCUUUCGCAAAG [Eternabot solution 48] (Eterna round: R96, puzzle: Same State NG 2) | 52.7 | 40 | 58.2 | – | – | –
28 | GGUGCCAAAUAAGCCUACAUGAGGAUCACCCAUGUAUGUAGGCAGGAUAUCGUAUGCAAAGCAUACGAGAAGGGCCGAGGCACC [Mat - Same State NG 3 - JL Mod - D57] (Eterna round: R96, puzzle: Same State NG 3) | 23.8 | 29.3 | 47.1 | – | – | –
29 | GGUGGGUUACUACCAACACAUGAGGAUCACCCAUGUUUUGGGAAGGAUAUGGUACCUAUUUGGUACCAGAAGGUCCAGUUAAUG [salish99_SSNG3_r04_702] (Eterna round: R96, puzzle: Same State NG 3) | 51.4 | 29.5 | 41.7 | – | – | –
30 | GGUGGGUUACUACCAACACAUGAGGAUCACCCAUGUUUUGGGAAGGAUAUGGUACCUAUUUGGUACCAGAAGGUCCUGUUGGUG [salish99_SSNG3_r04_706] (Eterna round: R96, puzzle: Same State NG 3) | 36.6 | 105 | 116 | – | – | –
31 | GGUGGGUUGCUGCCGGCACAUGAGGAUCACCCAUGUUUUGGGAAGGAUAUGGUACCUAUUUGGUGCCAGAAGGUCCCGUUGGUG [salish99_SSNG3_r04_710] (Eterna round: R96, puzzle: Same State NG 3) | 402 | 376 | 480 | – | – | –
